Assay results: patent US11591404B2, “Treatment of cancer using a CD123 chimeric antigen receptor” (Novartis AG, priority 2014, dated 2023)

B1: 1176: murine CD123 CAR construct, CD123 4-1BBCD3z-CAR (26292), SEQ ID NO: 708, described in PCT/US2014/017328 (protein)
chain: MALPVTALLLPLALLLHAARPGSDVQITQSPSYLAASPGETITINCRASKSISKDLAWYQEKPGKTNKLLIYSGSTLQSGIPSRFSGSGSGTDFTLTISSLEPEDFAMYYCQQHNKYPYTFGGGTKLEIKGGGGSGGGGSSGGGSQVQLQQPGAELVRPGASVKLSCKASGYTFTSYWMNWVKQRPDQGLEWIGRIDPYDSETHYNQKFKDKAILTVDKSSSTAYMQLSSLTSEDSAVYYCARGNWDDYWGQGTTLTVSSASSGTTTPAPRPPTPAPTIASQPLSLRPEACRPAAGGAVHTRGLDFACDIYIWAPLAGTCGVLLLSLVITLYCKRGRKKLLYIFKQPFMRPVQTTQEEDGCSCRFPEEEEGGCELRVKFSRSADAPAYKQGQNQLYNELNLGRREEYDVLDKRRGRDPEMGGKPRRKNPQEGLYNELQKDKMAEAYSEIGMKGERRRGKGHDGLYQGLSTATKDTYDALHMQALPPR
B2: 1172: murine CD123 CAR construct, CD123 4-1BBCD3z-CAR, SEQ ID NO: 707, described in PCT/US2014/017328 (protein)
chain: MALPVTALLLPLALLLHAARPGSDIVLTQSPASLAVSLGQRATISCRASESVDNYGNTFMHWYQQKPGQPPKLLIYRASNLESGIPARFSGSGSRTDFTLTINPVEADDVATYYCQQSNEDPPTFGAGTKLELKGGGGSGGGGSSGGGSQIQLVQSGPELKKPGETVKISCKASGYIFTNYGMNWVKQAPGKSFKWMGWINTYTGESTYSADFKGRFAFSLETSASTAYLHINDLKNEDTATYFCARSGGYDPMDYWGQGTSVTVSSASSGTTTPAPRPPTPAPTIASQPLSLRPEACRPAAGGAVHTRGLDFACDIYIWAPLAGTCGVLLLSLVITLYCKRGRKKLLYIFKQPFMRPVQTTQEEDGCSCRFPEEEEGGCELRVKFSRSADAPAYKQGQNQLYNELNLGRREEYDVLDKRRGRDPEMGGKPRRKNPQEGLYNELQKDKMAEAYSEIGMKGERRRGKGHDGLYQGLSTATKDTYDALHMQALPPR
B3: CAR123-4: fully human anti-CD123 scFv CAR with 4-1BB and CD3zeta; CAR amino acid SEQ ID NO: 101 (protein, listed as Homo sapiens)
chain: MALPVTALLLPLALLLHAARPQVQLQQSGAEVKKSGASVKVSCKASGYTFTDYYMHWLRQAPGQGLEWMGWINPNSGDTNYAQKFQGRVTLTRDTSISTVYMELSRLRSDDTAVYYCARDMNILATVPFDIWGQGTMVTVSSASGGGGSGGRASGGGGSDIQMTQSPSSLSASVGDRVTITCRASQSISSYLNWYQQKPGKAPKLLIYAASSLQSGVPSRFSGSGSGTDFTLTISSLQPEDFATYYCQQGDSVPLTFGGGTKVEIKTTTPAPRPPTPAPTIASQPLSLRPEACRPAAGGAVHTRGLDFACDIYIWAPLAGTCGVLLLSLVITLYCK
B4: CAR123-3: fully human anti-CD123 scFv CAR with 4-1BB and CD3zeta; CAR amino acid SEQ ID NO: 100 (protein, listed as Homo sapiens)
chain: MALPVTALLLPLALLLHAARPQVQLVQSGAEVKKPGASVKVSCKASGYIFTGYYIHWVRQAPGQGLEWMGWINPNSGGTNYAQKFQGRVTMTRDTSISTAYMELSGLRSDDPAVYYCARDMNILATVPFDIWGQGTLVTVSSGGGGSGGGGSGGGGSDIQLTQSPSSLSASVGDRVTITCRASQSISSYLNWYQQKPGKAPKLLIYAASSLQSGVPSRFSGSGSGTDFTLTVNSLQPEDFATYYCQQGDSVPLTFGGGTKVEIKTTTPAPRPPTPAPTIASQPLSLRPEACRPAAGGAVHTRGLDFACDIYIWAPLAGTCGVLLLSLVITLYCKRGRKKLLYIFKQPFMRPVQTTQEEDGCSCRFPEEEEGGCELRVKFSRSADAPAYKQGQNQLYNELNLGRREEYDVLDKRRGRDPEMGGKPRRKNPQEGLYNELQKDKMAEAYSEIGMKGERRRGKGHDGLYQGLSTATKDTYDALHMQALPPR

Assays:
cynomolgus CD123 = assay: Cross-reactivity of anti-CD123 clones against cynomolgus CD123; format: binding
[1] = test system: MOLM14 (CD123+ tumor cells); assay: CD107a degranulation of CART cells, 2 hours; format: cell-based; settings: 2-hr in vitro assay, CD123+ targets
Experimental: To assess degranulation, CART cells (NVS 2-4, 1172 and 1176 clones) were thawed, rested overnight at a concentration of 2e^6 cells/ml in T cell media. Cells were then counted and resuspended at 1e^6 cells/ml the following day. Tumor target cells (TCM, PMA/iono, MOLM14 or JURKAT) were resuspended at 5e^6 cells/ml. Cells were plated at a ratio of 1e^5 T cell: 5e^5 tumor cell in 48 well plates and incubated for 2 hours in the presence of anti-CD107a PECy7, anti-CD49d purified, and anti-CD28 purified antibodies. Cells were then harvested, stained with anti-CD3 APC and acquired using BD LSR Fortessa (FIG. 7).

| Molecule | cross-reactivity against cynomolgus CD123 (cynomolgus CD123) | T cell degranulation (CD107a) [1] [%] |
| --- | --- | --- |
| B1 | cross-reactive against cynomolgus CD123 | 65 |
| B2 | is not |  |
| B3 | cross-reactive against cynomolgus CD123 |  |
| B4 | cross-reactive against cynomolgus CD123 |  |
